# Values joined by “and” are separate entries in the source; they are usually repeats but may differ in a detail not shown here. Identical values can stand only once.
# T1: Mouse IgM-Fc pentamer with HA-tagged J chain (mouse, UniProt P01872 1-454; P01592 22-159)
# T1 construct: Mouse immunoglobulin M heavy chain, Fc region: Cμ2-Cμ3-Cμ4 and the short tail; Mouse immunoglobulin J (joining) chain; as m2; also called Fc-pentamer/J-HA; IgM-Fc/J-HA; source: HEK293T transfected with pCAGGS-FLAG-mouse Fc and pCAGGS-mouse J chain-HA, co-cultured with cells expressing AIM-HA; not shown: FLAG, N-terminal, kept; copies: 10 + 1
# T1 sequence (looked up) 1: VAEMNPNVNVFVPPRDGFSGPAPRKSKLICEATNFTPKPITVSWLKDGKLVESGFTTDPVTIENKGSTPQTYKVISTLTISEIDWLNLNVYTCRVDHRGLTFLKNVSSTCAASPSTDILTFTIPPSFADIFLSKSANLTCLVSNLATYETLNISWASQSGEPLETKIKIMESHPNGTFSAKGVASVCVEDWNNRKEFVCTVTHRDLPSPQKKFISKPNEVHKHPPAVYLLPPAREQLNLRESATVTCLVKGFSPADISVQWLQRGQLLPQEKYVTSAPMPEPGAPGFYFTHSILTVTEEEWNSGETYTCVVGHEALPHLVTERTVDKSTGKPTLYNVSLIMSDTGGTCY
# T1 sequence (looked up) 2: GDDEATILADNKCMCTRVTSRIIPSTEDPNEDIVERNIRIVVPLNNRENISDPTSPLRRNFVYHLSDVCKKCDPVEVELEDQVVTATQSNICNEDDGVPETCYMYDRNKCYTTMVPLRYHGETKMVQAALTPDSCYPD
# B1: FLAG-tagged recombinant mouse IgM-Fc (Cμ2 to tail) (domain or fragment, UniProt P01872 1-454, looked up)
# chain: T1 sequence (looked up) 1
# notes: Mouse immunoglobulin M heavy chain, Fc region: Cμ2-Cμ3-Cμ4 and the short tail (19 amino acids); also called mouse Fc; Fc monomer; source: HEK293T, transfected (pCAGGS-FLAG-IgM-Fc, with or without the J chain plasmid), in culture supernatant; not shown: FLAG, N-terminal, kept
# B2: HA-tagged mouse AIM (natural protein, UniProt Q9QWK4 22-352, looked up)
# chain: ESPTKVQLVGGAHRCEGRVEVEHNGQWGTVCDDGWDRRDVAVVCRELNCGAVIQTPRGASYQPPASEQRVLIQGVDCNGTEDTLAQCELNYDVFDCSHEEDAGAQCENPDSDLLFIPEDVRLVDGPGHCQGRVEVLHQSQWSTVCKAGWNLQVSKVVCRQLGCGRALLTYGSCNKNTQGKGPIWMGKMSCSGQEANLRSCLLSRLENNCTHGEDTWMECEDPFELKLVGGDTPCSGRLEVLHKGSWGSVCDDNWGEKEDQVVCKQLGCGKSLHPSPKTRKIYGPGAGRIWLDDVNCSGKEQSLEFCRHRLWGYHDCTHKEDVEVICTDFDV
# notes: Mouse AIM (CD5L), secreted; also called AIM-HA; source: HEK293T, transfected (pCAGGS-AIM-HA), co-cultured with cells expressing FLAG-mouse Fc and J chain-HA; culture supernatant, co-purified with the Fc pentamer
# What was measured:
# [1] = biological target: FLAG-tagged recombinant human IgM-Fc (human); test: negative-stain EM; purified IgM-Fc or IgM made with the J chain, about 15 μg/ml, 1% uranyl acetate; reference-free 2D class averages (RELION)
# [2] = biological target: FLAG-tagged mouse IgM-Fc Cys414Ser variant (mouse); test: as above
# [3] = biological target: FLAG-tagged mouse IgM-Fc Cys414Ser variant (mouse); test: Western blotting after non-reducing SDS-PAGE; supernatant of HEK293T cells co-expressing FLAG-IgM-Fc and HA-J chain; anti-FLAG and anti-HA blots, reducing and nonreducing conditions
# [4] = biological target: the molecule itself; test: negative-stain EM; purified FLAG-tagged mouse IgM-Fc oligomers made in the absence of the J chain; reference-free 2D class averages
# [5] = biological target: the molecule itself; test: negative-stain EM; purified IgM-Fc or IgM made with the J chain, about 15 μg/ml, 1% uranyl acetate; reference-free 2D class averages (RELION)
# [6] = biological target: T1, Mouse IgM-Fc pentamer with HA-tagged J …; test: co-IP; complex from co-culture supernatant purified on ANTI-FLAG M2 Affinity Gel, then on an anti-AIM antibody column; eluate blotted with anti-HA in a reducing condition, bands quantified with ImageJ; five experiments; conditions: partners not purified
molecule,measurement,setting,value
FLAG-tagged recombinant human IgM-Fc (domain or fragment),stoichiometry N,[1],5
FLAG-tagged mouse IgM-Fc Cys414Ser variant (domain or fragment),stoichiometry N,[2],4 and 5
same,stoichiometry N,[3],4 and 5
B1,stoichiometry N,[4],6
same,stoichiometry N,[5],5
B2,"ratio of HA signal, AIM-HA versus J-HA",[6],1.3 ± 0.12 J-HA signal per AIM-HA signal
same,stoichiometry N,[6],1 AIM per pentamer

# Reference: article PMC6179379, “The IgM pentamer is an asymmetric pentagon with an open groove that binds the AIM protein” (Science Advances, 2018)
